Test results reported in FireProtDB (doi:10.1006/jmbi.1993.1508).

B1: Ribonuclease, P00648 (parent)
chain: MMKMEGIALKKRLSWISVCLLVLVSAAGMLFSTAAKTETSSHKAHTEAQVINTFDGVADYLQTYHKLPDNYITKSEAQALGWVASKGNLADVAPGKSIGGDIFSNREGKLPGKSGRTWREADINYTSGFRNSDRILYSSDWLIYKTTDHYQTFTKIR

Variants of: B1
Details: Bacillus amyloliquefaciens; pH 6.3; 25 °C; Urea; Fluorescence; MES 50 mM; reversible: yes; structure 1BNI; whole UniProt chain shown

Variant	ddG of mutation (higher = less stable) [kcal/mol]	denaturant m value [kcal/mol/M]	denaturant midpoint (higher = more stable) [M]	unfolding free energy [kcal/mol]
MMKMEGIALKKRLSWISVCLLVLVSAAGMLFSTAAKTETSSHKAHTEAQVINTFDGVADYLITYHKLPDNYITKSEAQALGWVASKGNLADVAPGKSIGGDIFSNREGKLPGKSGRTWREADINYTSGFRNSDRILYSSDWLIYKTTDHYQTFTKIR [Q62I]	-1.38	2.02	5	10.2
MMKMEGIALKKRLSWISVCLLVLVSAAGMLFSTAAKTETSSHKAHTEAQVINTFDGVADYLIRYHRLPDNYITKSEAQALGWVASKGNLADVAPGKSIGGDIFSNREGKLPGKSGRTWREADINYTSGFRNSDRILYSSDWLIYKTTDHYQTFTKIR [Q62I T63R K66R]	-1.98	2	5.42	10.8
MMKMEGIALKKRLSWISVCLLVLVSAAGMLFSTAAKTETSSHKAHTEAQVINTFDGVADYLIRYHRLPDNYITKSEAQALGWVASKGNLADVAPGKSIGGDIFSNREGKLPSASGRTWREADINYTSGFRNSDRILYSSDWLIYKTTDHYQTFTRIR [Q62I T63R K66R G112S K113A K155R]	-2.98	1.86	6.34	11.8
MMKMEGIALKKRLSWISVCLLVLVSAAGMLFSTAAKTETSSHKAHTEAQVINTFDGVADYLQRYHKLPDNYITKSEAQALGWVASKGNLADVAPGKSIGGDIFSNREGKLPGKSGRTWREADINYTSGFRNSDRILYSSDWLIYKTTDHYQTFTKIR [T63R]	-0.78	1.98	4.8	9.6
MMKMEGIALKKRLSWISVCLLVLVSAAGMLFSTAAKTETSSHKAHTEAQVINTFDGVADYLQTYKKLPDNYITKSEAQALGWVASKGNLADVAPGKSIGGDIFSNREGKLPGKSGRTWREADINYTSGFRNSDRILYSSDWLIYKTTDHYQTFTKIR [H65K]	0.92	2	3.9	7.9
MMKMEGIALKKRLSWISVCLLVLVSAAGMLFSTAAKTETSSHKAHTEAQVINTFDGVADYLQTYHRLPDNYITKSEAQALGWVASKGNLADVAPGKSIGGDIFSNREGKLPGKSGRTWREADINYTSGFRNSDRILYSSDWLIYKTTDHYQTFTKIR [K66R]	-0.88	2.08	4.6	9.7
MMKMEGIALKKRLSWISVCLLVLVSAAGMLFSTAAKTETSSHKAHTEAQVINTFDGVADYLQTYHKLPDNYITKSEASALGWVASKGNLADVAPGKSIGGDIFSNREGKLPGKSGRTWREADINYTSGFRNSDRILYSSDWLIYKTTDHYQTFTKIR [Q78S]	-0.28	2.05	4.4	9.1
MMKMEGIALKKRLSWISVCLLVLVSAAGMLFSTAAKTETSSHKAHTEAQVINTFDGVADYLQTYHKLPDNYITKSEAQALGWVASKGNLAEVAPGKSIGGDIFSNREGKLPGKSGRTWREADINYTSGFRNSDRILYSSDWLIYKTTDHYQTFTKIR [D91E]	0.32	1.84	4.6	8.5
MMKMEGIALKKRLSWISVCLLVLVSAAGMLFSTAAKTETSSHKAHTEAQVINTFDGVADYLQTYHKLPDNYITKSEAQALGWVASKGNLADVAPGKSIGGDVFSNREGKLPGKSGRTWREADINYTSGFRNSDRILYSSDWLIYKTTDHYQTFTKIR [I102V]	0.32	1.93	4.4	8.5
MMKMEGIALKKRLSWISVCLLVLVSAAGMLFSTAAKTETSSHKAHTEAQVINTFDGVADYLQTYHKLPDNYITKSEAQALGWVASKGNLADVAPGKSIGGDIFSNREGRLPGKSGRTWREADINYTSGFRNSDRILYSSDWLIYKTTDHYQTFTKIR [K109R]	0.02	2.04	4.3	8.8
MMKMEGIALKKRLSWISVCLLVLVSAAGMLFSTAAKTETSSHKAHTEAQVINTFDGVADYLQTYHKLPDNYITKSEAQALGWVASKGNLADVAPGKSIGGDIFSNREGKLPSKSGRTWREADINYTSGFRNSDRILYSSDWLIYKTTDHYQTFTKIR [G112S]	-0.98	2.03	4.8	9.8
MMKMEGIALKKRLSWISVCLLVLVSAAGMLFSTAAKTETSSHKAHTEAQVINTFDGVADYLQTYHKLPDNYITKSEAQALGWVASKGNLADVAPGKSIGGDIFSNREGKLPGASGRTWREADINYTSGFRNSDRILYSSDWLIYKTTDHYQTFTKIR [K113A]	-0.98	2.09	4.7	9.8
MMKMEGIALKKRLSWISVCLLVLVSAAGMLFSTAAKTETSSHKAHTEAQVINTFDGVADYLQTYHKLPDNYITKSEAQALGWVASKGNLADVAPGKSIGGDIFSNREGKLPGKSGRTWREADINYVSGFRNSDRILYSSDWLIYKTTDHYQTFTKIR [T126V]	-0.18	1.91	4.7	9
MMKMEGIALKKRLSWISVCLLVLVSAAGMLFSTAAKTETSSHKAHTEAQVINTFDGVADYLQTYHKLPDNYITKSEAQALGWVASKGNLADVAPGKSIGGDIFSNREGKLPGKSGRTWREADINYTSGFRNADRILYSSDWLIYKTTDHYQTFTKIR [S132A]	-0.28	2.02	4.51	9.1
MMKMEGIALKKRLSWISVCLLVLVSAAGMLFSTAAKTETSSHKAHTEAQVINTFDGVADYLQTYHKLPDNYITKSEAQALGWVASKGNLADVAPGKSIGGDIFSNREGKLPGKSGRTWREADINYTSGFRNSDRLLYSSDWLIYKTTDHYQTFTKIR [I135L]	0.02	1.98	4.4	8.8
MMKMEGIALKKRLSWISVCLLVLVSAAGMLFSTAAKTETSSHKAHTEAQVINTFDGVADYLQTYHKLPDNYITKSEAQALGWVASKGNLADVAPGKSIGGDIFSNREGKLPGKSGRTWREADINYTSGFRNSDRIVYSSDWLIYKTTDHYQTFTKIR [L136V]	0.32	1.92	4.4	8.5
MMKMEGIALKKRLSWISVCLLVLVSAAGMLFSTAAKTETSSHKAHTEAQVINTFDGVADYLQTYHKLPDNYITKSEAQALGWVASKGNLADVAPGKSIGGDIFSNREGKLPGKSGRTWREADINYTSGFRNSDRILYSSDWLIYKTTDHYATFTKIR [Q151A]	0.02	1.98	4.4	8.8
MMKMEGIALKKRLSWISVCLLVLVSAAGMLFSTAAKTETSSHKAHTEAQVINTFDGVADYLQTYHKLPDNYITKSEAQALGWVASKGNLADVAPGKSIGGDIFSNREGKLPGKSGRTWREADINYTSGFRNSDRILYSSDWLIYKTTDHYQTFTRIR [K155R]	-0.78	1.91	5	9.6
